Results published in US20170190753A1 (LABORATOIRE FRANCAIS DU FRACTIONNEMENT ET DES …, published 2017).

molecular target: C3 convertase complex (UniProt P01024 23-1663; P00751 260-764); assay: cell-based or functional assay
Throughout, for C3 convertase activity % of the control: test concentration or dose not given here.

Chain of C3 convertase complex (P01024 23-1663, chain 1 of 2): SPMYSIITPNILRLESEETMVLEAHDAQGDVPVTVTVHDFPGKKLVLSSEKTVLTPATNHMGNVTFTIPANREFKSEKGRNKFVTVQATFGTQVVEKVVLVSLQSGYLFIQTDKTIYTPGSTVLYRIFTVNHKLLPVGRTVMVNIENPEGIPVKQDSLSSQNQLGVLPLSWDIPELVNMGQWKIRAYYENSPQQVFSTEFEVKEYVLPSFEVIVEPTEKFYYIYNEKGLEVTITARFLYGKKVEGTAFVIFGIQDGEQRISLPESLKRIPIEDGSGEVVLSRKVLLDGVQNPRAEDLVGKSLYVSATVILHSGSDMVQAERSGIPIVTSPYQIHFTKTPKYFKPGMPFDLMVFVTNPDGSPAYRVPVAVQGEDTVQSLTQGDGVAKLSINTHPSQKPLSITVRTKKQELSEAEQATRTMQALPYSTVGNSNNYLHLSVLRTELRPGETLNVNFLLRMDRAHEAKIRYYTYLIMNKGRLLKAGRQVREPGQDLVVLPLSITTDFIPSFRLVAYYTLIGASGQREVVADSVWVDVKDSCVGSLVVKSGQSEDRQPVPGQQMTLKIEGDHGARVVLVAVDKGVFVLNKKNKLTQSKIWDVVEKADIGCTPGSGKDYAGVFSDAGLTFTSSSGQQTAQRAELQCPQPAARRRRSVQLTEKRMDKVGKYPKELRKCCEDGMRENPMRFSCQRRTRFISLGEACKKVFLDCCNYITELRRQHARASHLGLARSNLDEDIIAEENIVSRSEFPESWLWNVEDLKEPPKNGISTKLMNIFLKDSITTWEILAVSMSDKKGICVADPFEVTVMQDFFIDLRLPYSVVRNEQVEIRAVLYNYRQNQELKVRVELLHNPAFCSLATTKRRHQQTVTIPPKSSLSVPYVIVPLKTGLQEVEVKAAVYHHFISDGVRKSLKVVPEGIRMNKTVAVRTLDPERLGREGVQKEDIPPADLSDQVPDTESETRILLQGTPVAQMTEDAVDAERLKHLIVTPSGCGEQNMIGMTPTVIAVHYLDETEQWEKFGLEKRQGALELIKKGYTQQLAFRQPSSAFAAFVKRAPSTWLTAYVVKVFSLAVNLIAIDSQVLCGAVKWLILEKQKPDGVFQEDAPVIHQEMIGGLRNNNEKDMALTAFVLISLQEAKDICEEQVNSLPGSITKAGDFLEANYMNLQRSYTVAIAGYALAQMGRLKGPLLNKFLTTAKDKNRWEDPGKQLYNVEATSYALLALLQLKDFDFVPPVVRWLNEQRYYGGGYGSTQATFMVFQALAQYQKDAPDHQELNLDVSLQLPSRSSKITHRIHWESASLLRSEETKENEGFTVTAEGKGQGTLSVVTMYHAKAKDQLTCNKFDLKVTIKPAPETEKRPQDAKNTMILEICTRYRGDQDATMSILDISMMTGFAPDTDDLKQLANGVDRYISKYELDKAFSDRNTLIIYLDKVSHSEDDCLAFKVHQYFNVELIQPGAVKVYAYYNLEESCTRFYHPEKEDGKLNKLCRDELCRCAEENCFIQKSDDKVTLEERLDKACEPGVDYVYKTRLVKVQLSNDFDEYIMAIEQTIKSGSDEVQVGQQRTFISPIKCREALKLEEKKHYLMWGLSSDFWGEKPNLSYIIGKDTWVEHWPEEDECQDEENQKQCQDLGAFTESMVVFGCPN
Chain of C3 convertase complex (P00751 260-764, chain 2 of 2): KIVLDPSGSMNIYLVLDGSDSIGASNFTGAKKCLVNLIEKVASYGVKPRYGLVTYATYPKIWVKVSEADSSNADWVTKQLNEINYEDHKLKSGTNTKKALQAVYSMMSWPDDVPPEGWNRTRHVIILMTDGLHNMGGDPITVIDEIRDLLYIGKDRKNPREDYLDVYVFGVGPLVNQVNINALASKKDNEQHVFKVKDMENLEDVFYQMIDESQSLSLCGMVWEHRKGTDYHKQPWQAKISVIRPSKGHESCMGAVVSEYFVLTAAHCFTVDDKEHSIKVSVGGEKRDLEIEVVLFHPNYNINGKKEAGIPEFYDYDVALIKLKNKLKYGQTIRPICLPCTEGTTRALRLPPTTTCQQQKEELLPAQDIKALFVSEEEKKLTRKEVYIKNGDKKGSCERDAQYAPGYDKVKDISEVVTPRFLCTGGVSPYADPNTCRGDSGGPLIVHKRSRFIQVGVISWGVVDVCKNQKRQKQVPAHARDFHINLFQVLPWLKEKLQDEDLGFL

Binder	C3 convertase activity % of the control	C3 convertase activity IC50 [µg/mL]
pCEP4-1NT7-11CT20 (other) EDCNELPPRRNTEILTGSWSDQTYPEGTQAIYKCRPGYRSLGNVIMVCRKGEWVALNPLRKCQKRPCGHPGDTPFGTFTLTGGNVFEYGVKAVYTCNEGYQLLGEINYRECDTDGWTNDIPICEVVKCLPVTAPENGKIVSSAMEPDREYHFGQAVRFVCNSGYKIEGDEEMHCSDDGFWSKEKPKCVEISCKSPDVINGSPISQKIIYKENERFQYKCNMGYEYSERGDAVCTESGWRPLPSCEEKSCDNPYIPNGDYSPLRIKHRTGDEITYQCRNGFYPATRGNTAKCTSTGWIPAPRCTLKPCDYPDIKHGGLYHENMRRPYFPVAVGKYYSYYCDEHFETPSGSYWDHIHCTQDGWSPAVPCLRKCYFPYLENGYNQNYGRKFVQGKSIDVACHPGYALPKAQTTVTCMENGWSPTPRCIRVKTGASGCGPPPELLNGNVKEKTKEEYGHSEVVEYYCNPRFLMKGPNKIQCVDGEWTTLPVCIVEESTCGDIPELEHGWAQLSSPPYYYGDSVEFNCSESFTMIGHRSITCIHGVWTQLPQCVAIDKLKKCKSSNLIILEEHLKNKKEFDHNSNIRYRCRGKEGWIHTVCINGRWDPEVNCSMAQIQLCPPPPQIPNSHNMTTTLNYRDGEKVSVLCQENYLIQEGEEITCKDGRWQSIPLCVEKIPCSQPPQIEHGTINSSRSSQESYAHGTKLSYTCEGGFRISEENETTCYMGKWSSPPQCEGLPCKSPPEISHGVVAHMSDSYQYGEEVTYKCFEGFGIDGPAIAKCLGEKWSHPPSCIKTDCLSLPSFENAIPMGEKKDVYKAGEQVTYTCATYYKMDGASNVTCINSRWTGRPTCRDTSCVNPPTVQNAYIVSRQMSKYPSGERVRYQCRSPYEMFGDEEVMCLNGNWTEPPQCKDSTGKCGPPPPIDNGDITSFPLSVYAPASSVEYQCQNLYQLEGNKRITCRNGQWSEPPKCLHPCVISREIMENYNIALRWTAKQKLYSRTGESVEFVCKRGYRLSSRSHTLRTTCWDGKLEYPTCAKRGGSGHHHHHH	134 % of the control	0.265
pCEP4-1NT9-16CT20 (other) EDCNELPPRRNTEILTGSWSDQTYPEGTQAIYKCRPGYRSLGNVIMVCRKGEWVALNPLRKCQKRPCGHPGDTPFGTFTLTGGNVFEYGVKAVYTCNEGYQLLGEINYRECDTDGWTNDIPICEVVKCLPVTAPENGKIVSSAMEPDREYHFGQAVRFVCNSGYKIEGDEEMHCSDDGFWSKEKPKCVEISCKSPDVINGSPISQKIIYKENERFQYKCNMGYEYSERGDAVCTESGWRPLPSCEEKSCDNPYIPNGDYSPLRIKHRTGDEITYQCRNGFYPATRGNTAKCTSTGWIPAPRCTLKPCDYPDIKHGGLYHENMRRPYFPVAVGKYYSYYCDEHFETPSGSYWDHIHCTQDGWSPAVPCLRKCYFPYLENGYNQNYGRKFVQGKSIDVACHPGYALPKAQTTVTCMENGWSPTPRCIRVKTCSKSSIDIENGFISESQYTYALKEKAKYQCKLGYVTADGETSGSITCGKDGWSAQPTCIKSCDIPVFMNARTKNDFTWFKLNDTLDYECHDGYESNTGSTTGSIVCGYNGWSDLPICYEREGASGCKSPPEISHGVVAHMSDSYQYGEEVTYKCFEGFGIDGPAIAKCLGEKWSHPPSCIKTDCLSLPSFENAIPMGEKKDVYKAGEQVTYTCATYYKMDGASNVTCINSRWTGRPTCRDTSCVNPPTVQNAYIVSRQMSKYPSGERVRYQCRSPYEMFGDEEVMCLNGNWTEPPQCKDSTGKCGPPPPIDNGDITSFPLSVYAPASSVEYQCQNLYQLEGNKRITCRNGQWSEPPKCLHPCVISREIMENYNIALRWTAKQKLYSRTGESVEFVCKRGYRLSSRSHTLRTTCWDGKLEYPTCAKRGGSGHHHHHH	25 % of the control	0.418
pCEP4-1NT8-16CT20 (other) EDCNELPPRRNTEILTGSWSDQTYPEGTQAIYKCRPGYRSLGNVIMVCRKGEWVALNPLRKCQKRPCGHPGDTPFGTFTLTGGNVFEYGVKAVYTCNEGYQLLGEINYRECDTDGWTNDIPICEVVKCLPVTAPENGKIVSSAMEPDREYHFGQAVRFVCNSGYKIEGDEEMHCSDDGFWSKEKPKCVEISCKSPDVINGSPISQKIIYKENERFQYKCNMGYEYSERGDAVCTESGWRPLPSCEEKSCDNPYIPNGDYSPLRIKHRTGDEITYQCRNGFYPATRGNTAKCTSTGWIPAPRCTLKPCDYPDIKHGGLYHENMRRPYFPVAVGKYYSYYCDEHFETPSGSYWDHIHCTQDGWSPAVPCLRKCYFPYLENGYNQNYGRKFVQGKSIDVACHPGYALPKAQTTVTCMENGWSPTPRCIRVKTCSKSSIDIENGFISESQYTYALKEKAKYQCKLGYVTADGETSGSITCGKDGWSAQPTCIKSGASGCKSPPEISHGVVAHMSDSYQYGEEVTYKCFEGFGIDGPAIAKCLGEKWSHPPSCIKTDCLSLPSFENAIPMGEKKDVYKAGEQVTYTCATYYKMDGASNVTCINSRWTGRPTCRDTSCVNPPTVQNAYIVSRQMSKYPSGERVRYQCRSPYEMFGDEEVMCLNGNWTEPPQCKDSTGKCGPPPPIDNGDITSFPLSVYAPASSVEYQCQNLYQLEGNKRITCRNGQWSEPPKCLHPCVISREIMENYNIALRWTAKQKLYSRTGESVEFVCKRGYRLSSRSHTLRTTCWDGKLEYPTCAKRGGSGHHHHHH	25 % of the control	0.426
pCEP4-1NT4-9CT20 (other) EDCNELPPRRNTEILTGSWSDQTYPEGTQAIYKCRPGYRSLGNVIMVCRKGEWVALNPLRKCQKRPCGHPGDTPFGTFTLTGGNVFEYGVKAVYTCNEGYQLLGEINYRECDTDGWTNDIPICEVVKCLPVTAPENGKIVSSAMEPDREYHFGQAVRFVCNSGYKIEGDEEMHCSDDGFWSKEKPKCVEISCKSPDVINGSPISQKIIYKENERFQYKCNMGYEYSERGDAVCTESGWRPLPSCEEKSGASGCDIPVFMNARTKNDFTWFKLNDTLDYECHDGYESNTGSTTGSIVCGYNGWSDLPICYERECELPKIDVHLVPDRKKDQYKVGEVLKFSCKPGFTIVGPNSVQCYHFGLSPDLPICKEQVQSCGPPPELLNGNVKEKTKEEYGHSEVVEYYCNPRFLMKGPNKIQCVDGEWTTLPVCIVEESTCGDIPELEHGWAQLSSPPYYYGDSVEFNCSESFTMIGHRSITCIHGVWTQLPQCVAIDKLKKCKSSNLIILEEHLKNKKEFDHNSNIRYRCRGKEGWIHTVCINGRWDPEVNCSMAQIQLCPPPPQIPNSHNMTTTLNYRDGEKVSVLCQENYLIQEGEEITCKDGRWQSIPLCVEKIPCSQPPQIEHGTINSSRSSQESYAHGTKLSYTCEGGFRISEENETTCYMGKWSSPPQCEGLPCKSPPEISHGVVAHMSDSYQYGEEVTYKCFEGFGIDGPAIAKCLGEKWSHPPSCIKTDCLSLPSFENAIPMGEKKDVYKAGEQVTYTCATYYKMDGASNVTCINSRWTGRPTCRDTSCVNPPTVQNAYIVSRQMSKYPSGERVRYQCRSPYEMFGDEEVMCLNGNWTEPPQCKDSTGKCGPPPPIDNGDITSFPLSVYAPASSVEYQCQNLYQLEGNKRITCRNGQWSEPPKCLHPCVISREIMENYNIALRWTAKQKLYSRTGESVEFVCKRGYRLSSRSHTLRTTCWDGKLEYPTCAKRGGSGHHHHHH	18 % of the control	0.536
pCEP4-1NT4-11CT20 (other) EDCNELPPRRNTEILTGSWSDQTYPEGTQAIYKCRPGYRSLGNVIMVCRKGEWVALNPLRKCQKRPCGHPGDTPFGTFTLTGGNVFEYGVKAVYTCNEGYQLLGEINYRECDTDGWTNDIPICEVVKCLPVTAPENGKIVSSAMEPDREYHFGQAVRFVCNSGYKIEGDEEMHCSDDGFWSKEKPKCVEISCKSPDVINGSPISQKIIYKENERFQYKCNMGYEYSERGDAVCTESGWRPLPSCEEKSGASGCGPPPELLNGNVKEKTKEEYGHSEVVEYYCNPRFLMKGPNKIQCVDGEWTTLPVCIVEESTCGDIPELEHGWAQLSSPPYYYGDSVEFNCSESFTMIGHRSITCIHGVWTQLPQCVAIDKLKKCKSSNLIILEEHLKNKKEFDHNSNIRYRCRGKEGWIHTVCINGRWDPEVNCSMAQIQLCPPPPQIPNSHNMTTTLNYRDGEKVSVLCQENYLIQEGEEITCKDGRWQSIPLCVEKIPCSQPPQIEHGTINSSRSSQESYAHGTKLSYTCEGGFRISEENETTCYMGKWSSPPQCEGLPCKSPPEISHGVVAHMSDSYQYGEEVTYKCFEGFGIDGPAIAKCLGEKWSHPPSCIKTDCLSLPSFENAIPMGEKKDVYKAGEQVTYTCATYYKMDGASNVTCINSRWTGRPTCRDTSCVNPPTVQNAYIVSRQMSKYPSGERVRYQCRSPYEMFGDEEVMCLNGNWTEPPQCKDSTGKCGPPPPIDNGDITSFPLSVYAPASSVEYQCQNLYQLEGNKRITCRNGQWSEPPKCLHPCVISREIMENYNIALRWTAKQKLYSRTGESVEFVCKRGYRLSSRSHTLRTTCWDGKLEYPTCAKRGGSGHHHHHH	17 % of the control	0.546
pCEP4-1NT4-14CT20 (other) EDCNELPPRRNTEILTGSWSDQTYPEGTQAIYKCRPGYRSLGNVIMVCRKGEWVALNPLRKCQKRPCGHPGDTPFGTFTLTGGNVFEYGVKAVYTCNEGYQLLGEINYRECDTDGWTNDIPICEVVKCLPVTAPENGKIVSSAMEPDREYHFGQAVRFVCNSGYKIEGDEEMHCSDDGFWSKEKPKCVEISCKSPDVINGSPISQKIIYKENERFQYKCNMGYEYSERGDAVCTESGWRPLPSCEEKSGASGCPPPPQIPNSHNMTTTLNYRDGEKVSVLCQENYLIQEGEEITCKDGRWQSIPLCVEKIPCSQPPQIEHGTINSSRSSQESYAHGTKLSYTCEGGFRISEENETTCYMGKWSSPPQCEGLPCKSPPEISHGVVAHMSDSYQYGEEVTYKCFEGFGIDGPAIAKCLGEKWSHPPSCIKTDCLSLPSFENAIPMGEKKDVYKAGEQVTYTCATYYKMDGASNVTCINSRWTGRPTCRDTSCVNPPTVQNAYIVSRQMSKYPSGERVRYQCRSPYEMFGDEEVMCLNGNWTEPPQCKDSTGKCGPPPPIDNGDITSFPLSVYAPASSVEYQCQNLYQLEGNKRITCRNGQWSEPPKCLHPCVISREIMENYNIALRWTAKQKLYSRTGESVEFVCKRGYRLSSRSHTLRTTCWDGKLEYPTCAKRGGSGHHHHHH	15 % of the control	0.618
pCEP4-1NT7-16CT20 (other) EDCNELPPRRNTEILTGSWSDQTYPEGTQAIYKCRPGYRSLGNVIMVCRKGEWVALNPLRKCQKRPCGHPGDTPFGTFTLTGGNVFEYGVKAVYTCNEGYQLLGEINYRECDTDGWTNDIPICEVVKCLPVTAPENGKIVSSAMEPDREYHFGQAVRFVCNSGYKIEGDEEMHCSDDGFWSKEKPKCVEISCKSPDVINGSPISQKIIYKENERFQYKCNMGYEYSERGDAVCTESGWRPLPSCEEKSCDNPYIPNGDYSPLRIKHRTGDEITYQCRNGFYPATRGNTAKCTSTGWIPAPRCTLKPCDYPDIKHGGLYHENMRRPYFPVAVGKYYSYYCDEHFETPSGSYWDHIHCTQDGWSPAVPCLRKCYFPYLENGYNQNYGRKFVQGKSIDVACHPGYALPKAQTTVTCMENGWSPTPRCIRVKTGASGCKSPPEISHGVVAHMSDSYQYGEEVTYKCFEGFGIDGPAIAKCLGEKWSHPPSCIKTDCLSLPSFENAIPMGEKKDVYKAGEQVTYTCATYYKMDGASNVTCINSRWTGRPTCRDTSCVNPPTVQNAYIVSRQMSKYPSGERVRYQCRSPYEMFGDEEVMCLNGNWTEPPQCKDSTGKCGPPPPIDNGDITSFPLSVYAPASSVEYQCQNLYQLEGNKRITCRNGQWSEPPKCLHPCVISREIMENYNIALRWTAKQKLYSRTGESVEFVCKRGYRLSSRSHTLRTTCWDGKLEYPTCAKRGGSGHHHHHH	15 % of the control	0.442
